Where a chain is given by its changes, count along the chain named. Names may count otherwise. One block for each binder: values may come before it.
Target: T1, Human CD3eg linker (human)
T1 construct: Single-chain construct; also called recombinant human CD3
T1 chain: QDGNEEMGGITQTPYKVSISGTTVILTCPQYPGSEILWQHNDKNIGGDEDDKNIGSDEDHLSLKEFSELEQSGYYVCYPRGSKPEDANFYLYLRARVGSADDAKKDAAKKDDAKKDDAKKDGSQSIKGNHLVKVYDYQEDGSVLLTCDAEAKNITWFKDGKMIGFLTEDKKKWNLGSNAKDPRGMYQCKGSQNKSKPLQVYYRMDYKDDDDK
Assay: SPR; fold vs parent H183/L072

B2: H183/L072 VL L27bN (antibody, name in Kabat numbering, V domains shown)
VH: QVQLVESGGGLVQPGRSLRLSCAASGFTFSNAWMHWVRQAPGKGLEWVAQIKDKGNAYAAYYAPSVKGRFTISRDDSKNSIYLQMNSLKTEDTAVYYCHYVHYASASTVLPAFGVDAWGQGTTVTVSS
VL: DIVMTQSPLSLPVTPGEPASISCQASQENVHMNRNTYLHWYQQKPGQAPRLLIYKVSNRFPGVPDRFSGSGSGTDFTLKISRVEAEDVGVYYCAQGTSVPFTFGQGTKLEIK
fold change of affinity: 0 fold

B3: H183/L072 VL L33Q (antibody, name in Kabat numbering, V domains shown)
VH: B2 VH
VL: B2 VL with N29L, L38Q
fold change of affinity: 1.7 fold

B4: H183/L072 VL M27eA (antibody, name in Kabat numbering, V domains shown)
VH: B2 VH
VL: B2 VL with N29L, M32A
fold change of affinity: 1.3 fold

B9: H183/L072 VL M27eF (antibody, name in Kabat numbering, V domains shown)
VH: B2 VH
VL: B2 VL with N29L, M32F
fold change of affinity: 0.9 fold

B11: H183/L072 VL L33M (antibody, name in Kabat numbering, V domains shown)
VH: B2 VH
VL: B2 VL with N29L, L38M
fold change of affinity: 1.1 fold

B12: H183/L072 VL M27eK (antibody, name in Kabat numbering, V domains shown)
VH: B2 VH
VL: B2 VL with N29L, M32K
fold change of affinity: 1.4 fold

B13: H183/L072 VL L27bP (antibody, name in Kabat numbering, V domains shown)
VH: B2 VH
VL: B2 VL with N29P
fold change of affinity: 1.8 fold

B19: H183/L072 VL L27bS (antibody, name in Kabat numbering, V domains shown)
VH: B2 VH
VL: B2 VL with N29S
fold change of affinity: 0 fold

B22: H183/L072 VL M27eI (antibody, name in Kabat numbering, V domains shown)
VH: B2 VH
VL: B2 VL with N29L, M32I
fold change of affinity: 0.9 fold

B24: H183/L072 VL L33G (antibody, name in Kabat numbering, V domains shown)
VH: B2 VH
VL: B2 VL with N29L, L38G
fold change of affinity: 0 fold

B25: H183/L072 VL L33K (antibody, name in Kabat numbering, V domains shown)
VH: B2 VH
VL: B2 VL with N29L, L38K
fold change of affinity: 0 fold

B27: H183/L072 VL L27bT (antibody, name in Kabat numbering, V domains shown)
VH: B2 VH
VL: B2 VL with N29T
fold change of affinity: 0.6 fold

B30: H183/L072 VL M27eE (antibody, name in Kabat numbering, V domains shown)
VH: B2 VH
VL: B2 VL with N29L, M32E
fold change of affinity: 1 fold

B31: H183/L072 VL L33A (antibody, name in Kabat numbering, V domains shown)
VH: B2 VH
VL: B2 VL with N29L, L38A
fold change of affinity: 0.6 fold

B32: H183/L072 VL L33N (antibody, name in Kabat numbering, V domains shown)
VH: B2 VH
VL: B2 VL with N29L, L38N
fold change of affinity: 0 fold

Results, then the binder that gave them:

fold change of affinity: 0.5 fold
B1: H183/L072 VL L27bI (antibody, name in Kabat numbering, V domains shown)
VH: B2 VH
VL: B2 VL with N29I

fold change of affinity: 0 fold
B5: H183/L072 VL L33D (antibody, name in Kabat numbering, V domains shown)
VH: B2 VH
VL: B2 VL with N29L, L38D

fold change of affinity: 1 fold
B6: H183/L072 VL M27eL (antibody, name in Kabat numbering, V domains shown)
VH: B2 VH
VL: B2 VL with N29L, M32L

fold change of affinity: 0.9 fold
B7: H183/L072 VL M27eH (antibody, name in Kabat numbering, V domains shown)
VH: B2 VH
VL: B2 VL with N29L, M32H

fold change of affinity: 0 fold
B8: H183/L072 VL L27bK (antibody, name in Kabat numbering, V domains shown)
VH: B2 VH
VL: B2 VL with N29K

fold change of affinity: 0.9 fold
B10: H183/L072 VL M27eG (antibody, name in Kabat numbering, V domains shown)
VH: B2 VH
VL: B2 VL with N29L, M32G

fold change of affinity: 1.1 fold
B14: H183/L072 VL L33F (antibody, name in Kabat numbering, V domains shown)
VH: B2 VH
VL: B2 VL with N29L, L38F

fold change of affinity: 0.9 fold
B15: H183/L072 VL M27eN (antibody, name in Kabat numbering, V domains shown)
VH: B2 VH
VL: B2 VL with N29L, M32N

fold change of affinity: 0.3 fold
B16: H183/L072 VL L33T (antibody, name in Kabat numbering, V domains shown)
VH: B2 VH
VL: B2 VL with N29L, L38T

fold change of affinity: 1.4 fold
B17: H183/L072 VL L33H (antibody, name in Kabat numbering, V domains shown)
VH: B2 VH
VL: B2 VL with N29L, L38H

fold change of affinity: 0 fold
B18: H183/L072 VL L33S (antibody, name in Kabat numbering, V domains shown)
VH: B2 VH
VL: B2 VL with N29L, L38S

fold change of affinity: 1.7 fold
B20: H183/L072 VL L27bV (antibody, name in Kabat numbering, V domains shown)
VH: B2 VH
VL: B2 VL with N29V

fold change of affinity: 0.8 fold
B21: H183/L072 VL M27eD (antibody, name in Kabat numbering, V domains shown)
VH: B2 VH
VL: B2 VL with N29L, M32D

fold change of affinity: 0.4 fold
B23: H183/L072 VL L33V (antibody, name in Kabat numbering, V domains shown)
VH: B2 VH
VL: B2 VL with N29L, L38V

fold change of affinity: 0.7 fold
B26: H183/L072 VL L27bM (antibody, name in Kabat numbering, V domains shown)
VH: B2 VH
VL: B2 VL with N29M

fold change of affinity: 0 fold
B28: H183/L072 VL L33E (antibody, name in Kabat numbering, V domains shown)
VH: B2 VH
VL: B2 VL with N29L, L38E

fold change of affinity: 0 fold
B29: H183/L072 VL L27bQ (antibody, name in Kabat numbering, V domains shown)
VH: B2 VH
VL: B2 VL with N29Q

fold change of affinity: 1.2 fold
B33: H183/L072 VL M27eP (antibody, name in Kabat numbering, V domains shown)
VH: B2 VH
VL: B2 VL with N29L, M32P

Source: US20210388087A1 (Chugai, published 2021)
